# Results: US20080279844
# B1: Tissue transglutaminase (TG2, EC 2.3.2.13) (protein)
# chain: AEELVLERCDLELETNGRDHHTADLCREKLVVRRGQPFWLTLHFEGRNYEASVDSLTFSVVTGPAPSQEAGTKARFPLRDAVEEGDWTATVVDQQDCTLSLQLTTPANAPIGLYRLSLEASTGYQGSSFVLGHFILLFNAWCPADAVYLDSEEERQEYVLTQQGFIYQGSAKFIKNIPWNFGQFEDGILDICLILLDVNPKFLKNAGRDCSRRSSPVYVGRVVSGMVNCNDDQGVLLGRWDNNYGDGVSPMSWIGSVDILRRWKNHGCQRVKYGQCWVFAAVACTVLRCLGIPTRVVTNYNSAHDQNSNLLIEYFRNEFGEIQGDKSEMIWNFHCWVESWMTRPDLQPGYEGWQALDPTPQEKSEGTYCCGPVPVRAIKEGDLSTKYDAPFVFAEVNADVVDWIQQDDGSVHKSINRSLIVGLKISTKSVGRDEREDITHTYKYPEGSSEEREAFTRANHLNKLAEKEETGMAMRIRVGQSMNMGSDFDVFAHITNNTAEEYVCRLLLCARTVSYNGILGPECGTKYLLNLNLEPFSEKSVPLCILYEKYRDCLTESNLIKVRALLVEPVINSYLLAERDLYLENPEIKIRILGEPKQKRKLVAEVSLQNPLPVALEGCTFTVEGAGLTEEQKTVEIPDPVEAGEEVKVRMDLLPLHMGLHKLVVNFESDKLKAVKGFRNVIIGPA
# Target: T1, IκBα, P25963
# T1 chain: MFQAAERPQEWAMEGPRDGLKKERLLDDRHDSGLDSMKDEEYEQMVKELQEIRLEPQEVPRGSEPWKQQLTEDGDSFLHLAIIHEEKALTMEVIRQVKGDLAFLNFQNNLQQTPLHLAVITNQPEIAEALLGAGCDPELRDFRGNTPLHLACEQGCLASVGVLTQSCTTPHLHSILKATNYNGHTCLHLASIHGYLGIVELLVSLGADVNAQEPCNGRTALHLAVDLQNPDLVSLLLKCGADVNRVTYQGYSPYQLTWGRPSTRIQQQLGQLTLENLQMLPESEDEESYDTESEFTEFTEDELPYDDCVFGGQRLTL
protein,measurement,value
B1,"in vitro BPA labeling of IκBα immunoprecipitates in the presence of Ca2+ (3 mM), probed with horseradish peroxidase-conjugated streptavidin",demonstrated the presence of high-molecular-weight forms (dimeric and polymeric) of IκBα
